B1: Divalent-cation tolerance protein CutA, P69488 (parent)
chain: MLDEKSSNTASVVVLCTAPDEATAQDLAAKVLAEKLAACATLIPGATSLYYWEGKLEQEYEVQMILKTTVSHQQALLECLKSHHPYQTPELLVLPVTHGDTDYLSWLNASLR

Variants of: B1
Conditions: Escherichia coli (strain K12), pH 9, Thermal, DSC, Glycine 50mM, reversible: yes, whole UniProt chain shown

Variant	Tm (structure 1NAQ)	change of melting temperature, mutant - wild type (higher = more stable) (structure 1NAQ)	unfolding enthalpy (calorimetric) (structure 1NAQ)	Tm (structure 4Y65)	change of melting temperature, mutant - wild type (higher = more stable) (structure 4Y65)	unfolding enthalpy (calorimetric) (structure 4Y65)
Q87K T88R	122 °C	36.8 °C	378 kcal/mol			
S11V	103 °C	17.1 °C	311 kcal/mol			
T17K	107 °C	21.6 °C	314 kcal/mol			
H72K	118 °C	32.8 °C	364 kcal/mol			
S48K	112 °C	26.6 °C	280 kcal/mol	118 °C	32.7 °C	337 kcal/mol
S110R	117 °C	31.7 °C	391 kcal/mol			
T88R	118 °C	32 °C	359 kcal/mol			
Q87K	117 °C	31.2 °C	340 kcal/mol			
S82R	117 °C	31.5 °C	346 kcal/mol			
S82K	117 °C	31.3 °C	353 kcal/mol			
E61V	101 °C	15.4 °C	293 kcal/mol			
S48K H72K S82K Q87K T88R	137 °C	51.2 °C	416 kcal/mol			
S11V E61V	113 °C	27.6 °C	375 kcal/mol			
C39D				105 °C	19.8 °C	286 kcal/mol
